3 molecules from article PMC3953389, “Dimerization of VirD2 Binding Protein Is Essential for Agrobacterium Induced Tumor Formation in Plants” (PLoS Pathogens, 2014) can be followed below.

The target in experiment [1] is T1, VBP (VirD2-binding protein) (Agrobacterium fabrum, UniProt Q7CW19).
T1 construct: gene Atu4856; full-length VBP with 6His tag (pET32a, E. coli BL21(DE3)); homodimer 75 kDa; predicted NT domain aa 10-133, HEPN domain aa 159-279
Briefly: isothermal titration calorimetry. In general terms: Isothermal titration calorimetry measures the heat released or taken up as one component is titrated into another.

The target of experiment [2] is VirD2-binding protein (VBP), full-length, wild type, 6His-tagged (Agrobacterium tumefaciens C58). Briefly: AUC; sedimentation velocity, 1 mg/ml, 40,000 rpm, 24°C, absorbance at 280 nm, Sedfit.
The target is the same in experiment [3]. As to the kind of experiment: SEC; size-exclusion chromatography of the purified protein, apparent mass against molecular weight standards; 200 mM NaCl buffers (VBP: 20 mM Tris-HCl pH 8.0, 5% glycerol; HEPN: 30 mM CHES pH 9.0, 5% glycerol; NT: 30 mM Tris-HCl pH 7.5).
Experiment [4] has as its target C-terminal (HEPN) domain of VBP (Agrobacterium tumefaciens C58). As to the kind of experiment: AUC; sedimentation velocity, 1 mg/ml, 40,000 rpm, 24°C, absorbance at 280 nm, Sedfit.
For experiment [5] the target is unchanged. As to the kind of experiment: SEC; size-exclusion chromatography of the purified protein, apparent mass against molecular weight standards; 200 mM NaCl buffers (VBP: 20 mM Tris-HCl pH 8.0, 5% glycerol; HEPN: 30 mM CHES pH 9.0, 5% glycerol; NT: 30 mM Tris-HCl pH 7.5). For orientation: Size exclusion chromatography separates by hydrodynamic size, large species first.

A word on the Kd: it is the free concentration of one partner at which half of the binding sites on the other are occupied at equilibrium, for simple one-to-one binding. A higher Kd goes with lower affinity. Broadly, the stoichiometry N is a count of units in the complex or per binding partner.

On to `Nc1ncnc2c1ncn2[C@@H]1O[C@H](COP(=O)(O)OP(=O)(O)NP(=O)(O)O)[C@@H](O)[C@H]1O` [AMPPNP], for which the Kd in experiment [1] came out at 2 µM. For the molecule “VirD2-binding protein (VBP), full-length, wild type, 6His-tagged (natural protein)”, the stoichiometry N in experiment [2] and in experiment [3] was 2 throughout. As for “C-terminal (HEPN) domain of VBP (domain or fragment)”, the stoichiometry N in experiment [4] and in experiment [5] was 2 each time.
